Reference: article PMC8131599

Tests used:
[1] = biological target: EV-D68 mature virion, strain US/MO/14-18947 (clade B) (enterovirus D68 strain US/MO/14-18947)
[2] = biological target: EV-D68 mature virion, strain US/MO/14-18947 (clade B) (enterovirus D68 strain US/MO/14-18947); test: BLI

Row | Substance | IC50 of neutralization of EV-D68 strain 18947 on RD cells (cell viability, CellTiter-Glo) [1] [ng/mL] | neutralization concentration (lowest antibody concentration that fully inhibits cytopathic effect) against strain 18947 [1] [µg/mL] | Kd [2] [nM] | koff [2] [s⁻¹]
1 | anti-EV-D68 MAb 8F12 (murine, IgG2b) (antibody) | 4 | 0.06 | – | –
2 | anti-EV-D68 MAb 8F12 (murine, IgG2b) (from UniProt P01867) | – | – | 0.92 | 0.00035
